Assay results reported in US20230340128A1 (Xencor, published 2023).
Values belong to the binder of their own block, whether it stands above or below them.

How the values were obtained:
human mesothelin (MSLN) [1] = target: T1, human mesothelin (MSLN) (human, UniProt Q13421 296-580, limits assumed); assay: KD quoted in the text; Octet (BLI) per FIGS. 20-21
T1 construct: Antigen of the Octet KD values

human mesothelin (MSLN) [2] = target: T1, human mesothelin (MSLN); assay: KD quoted in the FIG. 25 legend; Octet (BLI) per FIGS. 20-21
[3] = target: MSLN on OVCAR8 cells (~90K MSLN antigens/cell) (UniProt Q13421 296-598); assay: binding to OVCAR8 cells, MFI APC against mAb concentration
CD3 = target: T2, CD3; assay: label in the legend box: nominal affinity of the CD3 binding domain; method not stated on the sheet
T2 chain 1: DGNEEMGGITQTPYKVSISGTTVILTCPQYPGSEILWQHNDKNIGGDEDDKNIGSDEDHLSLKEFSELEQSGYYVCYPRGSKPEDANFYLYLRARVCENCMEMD
T2 chain 2: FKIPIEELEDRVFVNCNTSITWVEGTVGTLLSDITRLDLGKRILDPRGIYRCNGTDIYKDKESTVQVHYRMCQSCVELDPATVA

human CD28 [4] = target: T3, human CD28 (human, UniProt P10747 19-152, limits assumed); assay: KD of its CD28 binding domain as quoted in the text
T3 construct: also called Cluster of Differentiation 28; Tp44

human mesothelin (MSLN) [5] = target: T1, human mesothelin (MSLN); assay: KD of its MSLN binding domain as quoted in the text
human CD28 [6] = target: T3, human CD28; assay: method not stated; Monovalent CD28 KD, table headed 1A7[CD28] H1.14_L1.71 (aka 37 nM)
human CD28 [7] = target: T3, human CD28; assay: label in the legend box: nominal affinity of the CD28 binding domain (paragraph 422 calls such label values KD); method not stated on the sheet
human mesothelin (MSLN) [8] = target: T1, human mesothelin (MSLN); assay: label in the legend box: nominal affinity of the MSLN binding domain (paragraph 422 calls such label values KD); method not stated on the sheet

- Kd (human mesothelin (MSLN) [1]): 0.3 nM
B1: MESO-C H1_L1 (Fab, V domains shown)
VH: QVQLVQSGAEVKKPGASVKVSCKASGYTFTSYWMHWVRQAPGQGLEWMGMIHPNSDNTIYYEKFQGRVTMTVDKSISTAYMELSRLRSDDTAVYYCAIIITPVVPKFDYWGQGTLVTVSS
VL: DIVMTQSPDSLAVSLGERATINCKASHDVGTSVAWYQQKPGQSPKLLIYWASTRHTGVPDRFTGSGSGTDFTLTISSLQAEDVAVYFCQQYSSYPLTFGAGTKLEIK

- Kd (human mesothelin (MSLN) [2]): ~12.8 nM
- EC50 (read off the curve) [3]: ~0.05 µg/mL
B2: XENP32751 (bispecific antibody)
chain 1: QVQLVQSGAEVKKPGASVKVSCKASGYTFTSYWMHWVRQAPGQGLEWMGMIHPNSDNTIYYEKFQGRVTMTVDKSISTAYMELSRLRSDDTAVYYCAIIITPVVPKFDYWGQGTLVTVSSASTKGPSVFPLAPSSKSTSGGTAALGCLVKDYFPEPVTVSWNSGALTSGVHTFPAVLQSSGLYSLSSVVTVPSSSLGTQTYICNVNHKPSDTKVDKKVEPKSCDKTHTCPPCPAPPVAGPSVFLFPPKPKDTLMISRTPEVTCVVVDVKHEDPEVKFNWYVDGVEVHNAKTKPREEEYNSTYRVVSVLTVLHQDWLNGKEYKCKVSNKALPAPIEKTISKAKGQPREPQVYTLPPSREEMTKNQVSLTCDVSGFYPSDIAVEWESDGQPENNYKTTPPVLDSDGSFFLYSKLTVDKSRWEQGDVFSCSVMHEALHNHYTQKSLSLSPGK
chain 2: QVQLVQSGAEVKKPGASVKVSCKASGYTFTSYWMHWVRQAPGQGLEWMGMIHPNSDNTIYYEKFQGRVTMTVDKSISTAYMELSRLRSDDTAVYYCAIIITPVVPKFDYWGQGTLVTVSSASTKGPSVFPLAPSSKSTSGGTAALGCLVKDYFPEPVTVSWNSGALTSGVHTFPAVLQSSGLYSLSSVVTVPSSSLGTQTYICNVNHKPSNTKVDKKVEPKSCGGGGSGGGGSQAVVTQEPSLTVSPGGTVTLTCGSSTGAVTTSNYANWVQQKPGKSPRGLIGGTNKRAPGVPARFSGSLLGGKAALTISGAQPEDEADYYCALWYSNHWVFGGGTKLTVLGKPGSGKPGSGKPGSGKPGSEVQLVESGGGLVQPGGSLRLSCAASGFTFSTYAMNWVRQAPGKGLEWVGRIRSKANNYATYYADSVKGRFTISRDDSKNTLYLQMNSLRAEDTAVYYCVRHGNFGDSYVSWFAYWGQGTLVTVSSGGGGSGGGGSKTHTCPPCPAPPVAGPSVFLFPPKPKDTLMISRTPEVTCVVVDVKHEDPEVKFNWYVDGVEVHNAKTKPREEQYNSTYRVVSVLTVLHQDWLNGKEYKCKVSNKALPAPIEKTISKAKGQPREPQVYTLPPSREQMTKNQVKLTCLVKGFYPSDIAVEWESNGQPENNYKTTPPVLDSDGSFFLYSKLTVDKSRWQQGNVFSCSVMHEALHNHYTQKSLSLSPGK
chain 3: DIVMTQSPDSLAVSLGERATINCKASHDVGTYVAWYQQKPGQSPKLLIYWASTRHTGVPDRFTGSGSGTDFTLTISSLQAEDVAVYFCQQYSSYPLTFGAGTKLEIKRTVAAPSVFIFPPSDEQLKSGTASVVCLLNNFYPREAKVQWKVDNALQSGNSQESVTEQDSKDSTYSLSSTLTLSKADYEKHKVYACEVTHQGLSSPVTKSFNRGEC

- Kd (human mesothelin (MSLN) [2]): 9.2 nM
- Kd (CD3): 30 nM
B3: XENP32947 (bispecific antibody)
chain 1: QVQLVQSGAEVKKPGASVKVSCKASGYTFTSYWMHWVRQAPGQGLEWMGWIHPNSDNTIYYEKFQGRVTMTVDKSISTAYMELSRLRSDDTAVYYCAIIITPVVPKFDYWGQGTLVTVSSASTKGPSVFPLAPSSKSTSGGTAALGCLVKDYFPEPVTVSWNSGALTSGVHTFPAVLQSSGLYSLSSVVTVPSSSLGTQTYICNVNHKPSDTKVDKKVEPKSCDKTHTCPPCPAPPVAGPSVFLFPPKPKDTLMISRTPEVTCVVVDVKHEDPEVKFNWYVDGVEVHNAKTKPREEEYNSTYRVVSVLTVLHQDWLNGKEYKCKVSNKALPAPIEKTISKAKGQPREPQVYTLPPSREEMTKNQVSLTCDVSGFYPSDIAVEWESDGQPENNYKTTPPVLDSDGSFFLYSKLTVDKSRWEQGDVFSCSVMHEALHNHYTQKSLSLSPGK
chain 2: QVQLVQSGAEVKKPGASVKVSCKASGYTFTSYWMHWVRQAPGQGLEWMGWIHPNSDNTIYYEKFQGRVTMTVDKSISTAYMELSRLRSDDTAVYYCAIIITPVVPKFDYWGQGTLVTVSSASTKGPSVFPLAPSSKSTSGGTAALGCLVKDYFPEPVTVSWNSGALTSGVHTFPAVLQSSGLYSLSSVVTVPSSSLGTQTYICNVNHKPSNTKVDKKVEPKSCGGGGSGGGGSQAVVTQEPSLTVSPGGTVTLTCGSSTGAVTTSNYANWVQQKPGKSPRGLIGGTNKRAPGVPARFSGSLLGGKAALTISGAQPEDEADYYCALWYSNHWVFGGGTKLTVLGKPGSGKPGSGKPGSGKPGSEVQLVESGGGLVQPGGSLRLSCAASGFTFSTYAMNWVRQAPGKGLEWVGRIRSKANNYATYYADSVKGRFTISRDDSKNTLYLQMNSLRAEDTAVYYCVRHGNFGDSYVSWFAYWGQGTLVTVSSGGGGSGGGGSKTHTCPPCPAPPVAGPSVFLFPPKPKDTLMISRTPEVTCVVVDVKHEDPEVKFNWYVDGVEVHNAKTKPREEQYNSTYRVVSVLTVLHQDWLNGKEYKCKVSNKALPAPIEKTISKAKGQPREPQVYTLPPSREQMTKNQVKLTCLVKGFYPSDIAVEWESNGQPENNYKTTPPVLDSDGSFFLYSKLTVDKSRWQQGNVFSCSVMHEALHNHYTQKSLSLSPGK
chain 3: DIVMTQSPDSLAVSLGERATINCKASHDVGTSVAWYQQKPGQSPKLLIYWASTRHTGVPDRFTGSGSGTDFTLTISSLQAEDVAVYFCQQYSSYPLTFGAGTKLEIKRTVAAPSVFIFPPSDEQLKSGTASVVCLLNNFYPREAKVQWKVDNALQSGNSQESVTEQDSKDSTYSLSSTLTLSKADYEKHKVYACEVTHQGLSSPVTKSFNRGEC

- Kd (human CD28 [4]): 37 nM
- Kd (human mesothelin (MSLN) [5]): 0.3 nM
- Kd (human CD28 [6]): 60 nM
B4: XENP39553 (bispecific antibody)
heavy: QVQLVQSGAEVKKPGASVKVSCKASGYTFTSYWMHWVRQAPGQGLEWMGMIHPNSDNTIYYEKFQGRVTMTVDKSISTAYMELSRLRSDDTAVYYCAIIITPVVPKFDYWGQGTLVTVSSASTKGPSVFPLAPSSKSTSGGTAALGCLVKDYFPEPVTVSWNSGALTSGVHTFPAVLQSSGLYSLSSVVTVPSSSLGTQTYICNVNHKPSDTKVDKKVEPKSCDKTHTCPPCPAPPVAGPSVFLFPPKPKDTLMISRTPEVTCVVVDVKHEDPEVKFNWYVDGVEVHNAKTKPREEEYNSTYRVVSVLTVLHQDWLNGKEYKCKVSNKALPAPIEKTISKAKGQPREPQVYTLPPSREEMTKNQVSLTCDVSGFYPSDIAVEWESDGQPENNYKTTPPVLDSDGSFFLYSKLTVDKSRWEQGDVFSCSVLHEALHSHYTQKSLSLSPGK
scFv-Fc: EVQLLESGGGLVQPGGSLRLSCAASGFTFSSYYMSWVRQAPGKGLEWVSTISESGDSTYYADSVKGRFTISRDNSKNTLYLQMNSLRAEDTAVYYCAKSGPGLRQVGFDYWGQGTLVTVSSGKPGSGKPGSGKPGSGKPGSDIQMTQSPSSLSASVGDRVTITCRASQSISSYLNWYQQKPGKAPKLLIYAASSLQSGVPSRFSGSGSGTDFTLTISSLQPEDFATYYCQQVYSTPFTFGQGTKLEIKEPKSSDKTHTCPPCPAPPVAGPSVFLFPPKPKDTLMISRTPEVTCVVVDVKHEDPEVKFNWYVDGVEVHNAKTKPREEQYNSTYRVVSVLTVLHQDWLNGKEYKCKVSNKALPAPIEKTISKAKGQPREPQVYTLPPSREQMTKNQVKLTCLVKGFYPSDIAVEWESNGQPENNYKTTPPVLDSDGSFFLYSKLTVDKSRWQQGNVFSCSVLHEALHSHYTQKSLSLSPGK
light: DIVMTQSPDSLAVSLGERATINCKASHDVGTSVAWYQQKPGQSPKLLIYWASTRHTGVPDRFTGSGSGTDFTLTISSLQAEDVAVYFCQQYSSYPLTFGAGTKLEIKRTVAAPSVFIFPPSDEQLKSGTASVVCLLNNFYPREAKVQWKVDNALQSGNSQESVTEQDSKDSTYSLSSTLTLSKADYEKHKVYACEVTHQGLSSPVTKSFNRGEC
notes: also called MSLN (0.3 nM) x CD28 (37 nM) 1+1 Fab-scFv-Fc

- Kd (human CD28 [7]): 37 nM
- Kd (human mesothelin (MSLN) [8]): 90 nM
B5: XENP39569 (bispecific antibody)
heavy: QVQLVQSGAEVKKPGASVKVSCKASGYTFTSYWMHWVRQAPGQGLEWMGWIHPNSDNTIYYEKFQGRVTMTVDKSISTAYMELSRLRSDDTAVYYCAIIITPVVPKFDYWGQGTLVTVSSASTKGPSVFPLAPSSKSTSGGTAALGCLVKDYFPEPVTVSWNSGALTSGVHTFPAVLQSSGLYSLSSVVTVPSSSLGTQTYICNVNHKPSDTKVDKKVEPKSCDKTHTCPPCPAPPVAGPSVFLFPPKPKDTLMISRTPEVTCVVVDVKHEDPEVKFNWYVDGVEVHNAKTKPREEEYNSTYRVVSVLTVLHQDWLNGKEYKCKVSNKALPAPIEKTISKAKGQPREPQVYTLPPSREEMTKNQVSLTCDVSGFYPSDIAVEWESDGQPENNYKTTPPVLDSDGSFFLYSKLTVDKSRWEQGDVFSCSVLHEALHSHYTQKSLSLSPGK
scFv-Fc: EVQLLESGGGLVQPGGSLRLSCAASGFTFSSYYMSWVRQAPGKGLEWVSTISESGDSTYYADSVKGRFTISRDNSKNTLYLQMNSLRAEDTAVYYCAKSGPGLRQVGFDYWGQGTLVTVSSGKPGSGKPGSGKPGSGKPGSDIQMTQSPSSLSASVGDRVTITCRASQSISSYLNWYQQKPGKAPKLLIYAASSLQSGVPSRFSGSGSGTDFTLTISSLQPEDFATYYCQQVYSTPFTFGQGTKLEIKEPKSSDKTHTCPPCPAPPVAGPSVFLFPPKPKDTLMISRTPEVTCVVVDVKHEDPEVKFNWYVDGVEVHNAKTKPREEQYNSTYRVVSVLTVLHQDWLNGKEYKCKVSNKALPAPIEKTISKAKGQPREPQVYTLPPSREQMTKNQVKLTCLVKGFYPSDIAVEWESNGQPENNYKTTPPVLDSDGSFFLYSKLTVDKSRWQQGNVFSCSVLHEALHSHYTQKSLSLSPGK
light: DIVMTQSPDSLAVSLGERATINCKASHDVGQSVAWYQQKPGQSPKLLIYWASTRHTGVPDRFTGSGSGTDFTLTISSLQAEDVAVYFCQQYSSYPLTFGAGTKLEIKRTVAAPSVFIFPPSDEQLKSGTASVVCLLNNFYPREAKVQWKVDNALQSGNSQESVTEQDSKDSTYSLSSTLTLSKADYEKHKVYACEVTHQGLSSPVTKSFNRGEC
notes: also called XENP39569 MSLN (90 nM) x CD28 (37 nM) 1+1
